± gives the uncertainty stated by the source.
Experiment: protein stability index of a GFP-peptide fusion (yeast GPS) (PSI 1-4); higher = more stable; sorted into four equal gates, so the index is relative within each strain
Summary of the method: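 For each peptide, the protein stability index sums the read frequency in every gate after multiplying it by the gate number. Read frequencies came from plasmids that were PCR-amplified from each gate and Illumina-sequenced, with reads assigned to strains by barcodes. The gates were four equal bins of GFP/Cherry fluorescence ratio applied to mid-log yeast in leucine-free medium carrying a pooled library of tiled 17-residue yeast protein peptides fused downstream of GFP on a Cherry-expressing plasmid.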

Row | Sequence | protein stability index (doa10∆) | protein stability index (pdr5∆) | protein stability index (san1∆) | protein stability index (ubr1∆)
1 | EVVEAVTVVDTPPVVVV [RPL3] | 1.36 ± 0.05 | 1.67 ± 0.05 | 1.48 ± 0.095 | 1.47 ± 0.036
2 | LWDSKELEQLVEFNRKV [RPN3] | 2.97 ± 0.1 | 2.62 ± 0.093 | 3.2 ± 0.068 | 2.81 ± 0.084
3 | TLHLVLRLRGGGKKRKK [RPS31] | 2.34 ± 0.26 | 2.32 ± 0.084 | 2.83 ± 0.3 | 2.86 ± 0.14
4 | RDVRDQAAGGLSIRLTN [RPN8] | 2.89 ± 0.087 | 2.85 ± 0.095 | 2.89 ± 0.097 | 2.6 ± 0.071
5 | PPQLANQQQPPQDILSK [SNF11] | 2.26 ± 0.055 | 2.87 ± 0.069 | 2.41 ± 0.065 | 2.69 ± 0.052
6 | HSQFMKDLKDDSIYTKP [YJL039C/NUP192] | 2.83 ± 0.045 | 3.02 ± 0.05 | 3.02 ± 0.044 | 2.93 ± 0.038
7 | IQKEEEPENNTVIEGVK [SWI3] | 3.3 ± 0.073 | 3.06 ± 0.072 | 3.28 ± 0.048 | 3.25 ± 0.053
8 | KSAISNNFRESDIIILK [SIR4] | 3 ± 0.08 | 2.56 ± 0.065 | 2.96 ± 0.06 | 3.09 ± 0.059
9 | SELQRLSHENNVMLEKI [RPT5] | 3 ± 0.11 | 3.1 ± 0.068 | 2.89 ± 0.063 | 2.9 ± 0.051
10 | FAVIYLCDIDEVSDFDE [DIB1] | 1.46 ± 0.13 | 2.16 ± 0.1 | 1.51 ± 0.17 | 1.64 ± 0.14
11 | NLTYYNEKLECISLGST [ITC1] | 2.2 ± 0.061 | 2.39 ± 0.044 | 2.32 ± 0.044 | 2.45 ± 0.04
12 | ANNYSSNIGNNSINNNN [YDL088C/ASM4] | 2.51 ± 0.071 | 3.19 ± 0.078 | 2.94 ± 0.085 | 2.76 ± 0.054
13 | ASLKHDNETKAMLINLI [RPN3] | 2.85 ± 0.28 | 3.21 ± 0.27 | 2.8 ± 0.13 | 2.77 ± 0.29
14 | AQFRVPRYHSKNSFQQA [SWP82] | 2.5 ± 0.075 | 2.57 ± 0.065 | 2.37 ± 0.083 | 2.62 ± 0.047
15 | YYNPQAGTKITICIELK [RGR1] | 2.16 ± 0.13 | 2.24 ± 0.23 | 2.1 ± 0.13 | 2.48 ± 0.1
16 | RIKITANNNMNDELVEL [GRR1] | 2.35 ± 0.051 | 2.41 ± 0.053 | 2.33 ± 0.062 | 2.71 ± 0.041
17 | HKDSFYDRATLTQLLSM [RPO31] | 1.79 ± 0.066 | 2.09 ± 0.062 | 2.09 ± 0.071 | 1.35 ± 0.04
18 | RIYDREPTVRIQAVFCL [YCG1] | 2.47 ± 0.11 | 1.72 ± 0.15 | 1.61 ± 0.21 | 2.39 ± 0.1
19 | SKQNGSKFHFSWNESED [PRP28] | 2.73 ± 0.061 | 2.94 ± 0.064 | 2.72 ± 0.072 | 2.79 ± 0.046
20 | THHTDIIPIVDYAQLDH [ARP9] | 2.58 ± 0.051 | 2.39 ± 0.041 | 2.66 ± 0.039 | 2.61 ± 0.031
21 | EIENLDKELRKTKFQYK [YIL149C/MLP2] | 2.73 ± 0.081 | 3.02 ± 0.086 | 3.07 ± 0.067 | 2.92 ± 0.074
22 | LEIAKDFQPTELFDILS [IRR1] | 3.07 ± 0.13 | 2.33 ± 0.11 | 2.8 ± 0.079 | 3.08 ± 0.086
23 | EVYMRYRNFMVNSYRLN [SWI3] | 2.19 ± 0.062 | 1.62 ± 0.06 | 1.46 ± 0.099 | 1.44 ± 0.097
24 | LNAINNAEKTGKRQVLL [RPS22B] | 3.35 ± 0.066 | 3.24 ± 0.078 | 3.26 ± 0.072 | 3.17 ± 0.05
25 | KLMDEDSVATVIEVIET [YJR042W/NUP85] | 2.85 ± 0.13 | 3.02 ± 0.16 | 2.51 ± 0.11 | 2.98 ± 0.15
26 | TGYPDEPPAGVALPPGS [CYT1] | 2.84 ± 0.13 | 2.92 ± 0.11 | 2.65 ± 0.11 | 2.95 ± 0.067

Reference: the supplement of paper PMC9732359
